Measured values reported in US10308712B2, “Antibodies that bind human cannabinoid 1 (CB1) receptor” (priority 2014, dated 2019).

B1: PA2LR3-P3F8: CB1 antibody (antibody, V domains shown)
VH: EVQLQQSGAELVRPGSSVKISCKASGYAFSNYWMNWVKQRPGQGLEWIGQIYPGDGDTNYNGNFKGKATLTADKSSSTAYMQLSSLTSEDSAVYFCARSHGNYFPYWGQGTLVTVSA
VL: DIVLTQSPAIMSASLGERVTMTCTASSSVSSSYLHWYQQKPGSSPKLWIYSTSNLASGVPARFSGSGSGTSYSLTISSMEAEDAATYYCQQWSSYPLTFGAGTKLELK
modifications: PA2LR3-P3F8 Heavy Chain Variable Region; PA2LR3-P3F8 Light Chain Variable Region
notes: CB1 antibody
B2: PA2LR3-P6G7: HC variable SEQ ID NO: 58, LC variable SEQ ID NO: 62; potential agonist IgG (antibody, V domains shown)
VH: EVQLQQSGAELVRPGSSVKISCKASGFAFSNYWMNWVKQRPGQGLEWIGQIYPGDGDTNFNGKFKGRAILTADISSNTAYMQLSSLTSEDSAVYFCARSHGNYFPYWGQGTLVTVSA
VL: DIVLTQSPAIMSASLGERVTMTCTASSSVSSSYLHWYQQKPGSSPKLWIYSTSNLASGVPARFSGSGSGTSYSLTISSMEAEDAATYYCHQHHRSPPTFGAGTKLELK
modifications: PA2LR3-P6G7 Heavy chain variable region; PA2LR3-P6G7 Light chain variable region
B3: PA2LR3-P4B5: CB1 antibody; HC variable SEQ ID NO: 26, LC variable SEQ ID NO: 30 (antibody, V domains shown)
VH: EVQLQQSGAELVRPGSSVKISCKASGYAFSYYWMNWVKQRPGQGLEWIGQIYPGDGDTNYSGRFKGKATLTADKSSSTAYIQLSSLTSEDSAVYFCARSHGNYFPYWGQGTLVTVSA
VL: DIVLNQSPAIMSASLGERVTMTCTASSSVSSSYLHWYQQKPGSSPKLWIYSTSNLASGVPARFSGSGSGTSYSLTISSMEAEDAATYYCHQYHRSPLTFGAGTKLEIK
modifications: PA2LR3- P4B5 Heavy chain variable region; PA2LR3- P4B5 Light chain variable region
B4: PA2LR3-P4B1: HC variable SEQ ID NO: 42, LC variable SEQ ID NO: 46; potential agonist IgG (antibody, V domains shown)
VH: EVQLQQSGAELVRPGSSVKISCKASGFAFSNYWMNWVKQRPGQGLEWIGQIYPGDGDTNFNGKFKGRAILTADISSNTAYMQLSSLTSEDSAVYFCARSHGNYFPYWGQGTLVTVSA
VL: QIVLTQSPAIMSASLGERVTMTCTASSSVSSSYLHWYQQKPGSSPKLWIYSTSNLASGVPARFSGSGSGTSYSLTISSMEAEDAATYYCHQYHRSPLTFGAGTKLELK
modifications: PA2LR3-P4B1 Heavy chain variable region; PA2LR3-P4B1 Light chain variable region
B5: PA2LR3-P5E7: CB1 antibody (antibody, V domains shown)
VH: EVQLQQSGAELVRPGSSVKISCKASGYAFSNYWMNWVKQRPGQGLEWIGQIYPGDGDTNFNGKFKGRAILTADISSNTAYMQLSSLTSEDSAVYFCARSHGNYFPYWGQGTLVTVSA
VL: DIVLTQSPTTMAASPGEKITITCSASSSISSNYLHWYQQKPGFSPKLLIYRTSTLASGVPARFSGSGSGTSYSLTISSMEAEDAATYYCHQYHRSPHTFGSGTKLEIK
modifications: PA2LR3-P5E7 Heavy Chain Variable region; PA2LR3-P5E7 Light Chain Variable region
notes: CB1 antibody
B6: 36E12B6C2: hybridoma-derived anti-CB1 antibody; HC variable SEQ ID NO: 18, LC variable SEQ ID NO: 22 (antibody, listed as Mus sp., V domains shown)
VH: QVQLQQSGAELVRPGSSVKISCKASGYEFSYYWMNWVKQRPGQGLQWIGQIYPGDGDTNYNGKFKGKATLTADKSSSTAYMHLTSLTSEDSAVYFCARSGGNPFAFWGQGTLVTVSA
VL: DIQMTQTSSSLSASLGDRVTFSCRASQDISNYLNWYQQKPDGTVKLLIYYTSRLHSGVTSRFRGSGSGTDYSLTISNLEQEDVATYFCQQGHTLPWSFGGGTKLEIK
B7: PA2LR3-P3A8: CB1 antibody (antibody, V domains shown)
VH: EVQLQQSGAELVRPGSSVKISCKASGYAFSYYWMNWVKQRPGQGLEWIGQIYPGDGDTNYNGKVKGKATLTADKSSSTAYMQLSSLTSEDSAVYFCARSHGNYFAYWGQGTLVTVSA
VL: DIVMTQSPAIMSASLGERVTMTCTASSSVSSSYLHWYQQKPGSSPKLWIYSTSNLASGVPARFSGSGSGTSYSLTISSMEAEDAATYYCQQWSSNPLTFGAGTKLELK
modifications: PA2LR3-P3A8 Heavy Chain Variable Region; PA2LR3-P3A8 Light Chain Variable Region
notes: CB1 antibody
B8: PA2LR3-P6B12: HC variable SEQ ID NO: 50, LC variable SEQ ID NO: 54; potential allosteric modulator (antibody, V domains shown)
VH: EVQLQQSGAELVRPGSSVKISCKASGYAFSYYWMNWVKQRPGQGLEWIGQIYPGDGDTNYNGKFKGKATLTADKSSSTAYMQLSSLTSEDSAVYFCARSHGNYFAYWGQGTLVTVSA
VL: QIVLTQSPAIMSASLGERVTMTCTASSSVSSSYLHWYQQKPGSSPKLWIYSTSNLASGVPARFSGSGSGTSYSLTISSMEAEDAATYYCHQYHRSPLAFGAGTKLELK
modifications: PA2LR3-P6B12 Heavy chain variable region; PA2LR3-P6B12 Light chain variable region
B9: PA2LR3-P4C6: CB1 receptor binding IgG clone (antibody, V domains shown)
VH: EVQLQQSGAELVRPGSSVKISCKASGYAFSYYWMNWVKQRPGQGLEWIGQIYPGDGDTNYNGKFKGKATLTADKSSSTAYMQLSSLTSEDSAVYFCARSHGNYFPYWGQGTLVTVSA
VL: DIVITQSPAIVSASLGERVTMTCTASSSVSSSYLHWYQQKPGSSPKLWIYSTSNLASGVPARFSGSGSGTSYSLTISSMEAEDAATYYCQQWSSYPLTFGAGTKLEIK
modifications: PA2LR3-P4C6 Heavy Chain Variable region; PA2LR3-P4C6 Light Chain Variable region
B10: PA2LR3-P4G10: CB1 receptor binding IgG clone (antibody, V domains shown)
VH: EVQLQQFGAELVRPGSSVKISCKASGYAFSYYWMNWVKQRPGQGLEWIGQIYPGDGDTNYNGKFKGKATLTADKSSSTAYMQLSSLTSEDSAVYFCARSHGNYFAYWGQGTLVTVSA
VL: DIVLTQSPAIMSASLGERVTMTCTASSSVSSSYLHWYQQKPGSSPKLWIYSTSNLASGVPARFSGSGSGTSYSLTISSMEAEDAATYYCQQWSSNPLTFGAGTKLELK
modifications: PA2LR3-P4G10 Heavy Chain Variable region; PA2LR3-P4G10 Light Chain Variable region

Assays:
[1] = target: T1, human CB1 expressing TRex-CHO cells (Homo sapiens, UniProt P21554); assay type: cell-based
T1 construct: pcDNA4/TO native full length human CB1 receptor construct was transfected into tetracycline inducible system Trex-CHO and Trex-293 cells; expressed in transfected cells

CB1 TRex-CHO cells = target: T2, CB1 TRex-CHO cells (Homo sapiens, UniProt P21554); assay type: cell-based; conditions: antibody 300 nM, 1 hour
T2 construct: pcDNA4/TO native full length human CB1 receptor construct was transfected into tetracycline inducible system Trex-CHO and Trex-293 cells; expressed in transfected cells

[2] = tested on: Trex-CHO CB1 receptor cells, WIN55,212 induced ERK phosphorylation; test: ERK activation assay (western blot); conditions: IgG 300 nM, WIN55,212 100 nM
TRex CHO parental cells = test: Flow cytometry (FACS) binding, parental cells; conditions: in words
human CB2 = human CB2 (Homo sapiens, UniProt P34972); test: Flow cytometry (FACS) selectivity, human CB2 cells; conditions: in words
Mouse CB1 = Mouse CB1 (Mus musculus, UniProt P47746); test: Flow cytometry (FACS) cross-reactivity, mouse CB1 cells; conditions: in words
Sequence of Mouse CB1 (P47746 whole entry): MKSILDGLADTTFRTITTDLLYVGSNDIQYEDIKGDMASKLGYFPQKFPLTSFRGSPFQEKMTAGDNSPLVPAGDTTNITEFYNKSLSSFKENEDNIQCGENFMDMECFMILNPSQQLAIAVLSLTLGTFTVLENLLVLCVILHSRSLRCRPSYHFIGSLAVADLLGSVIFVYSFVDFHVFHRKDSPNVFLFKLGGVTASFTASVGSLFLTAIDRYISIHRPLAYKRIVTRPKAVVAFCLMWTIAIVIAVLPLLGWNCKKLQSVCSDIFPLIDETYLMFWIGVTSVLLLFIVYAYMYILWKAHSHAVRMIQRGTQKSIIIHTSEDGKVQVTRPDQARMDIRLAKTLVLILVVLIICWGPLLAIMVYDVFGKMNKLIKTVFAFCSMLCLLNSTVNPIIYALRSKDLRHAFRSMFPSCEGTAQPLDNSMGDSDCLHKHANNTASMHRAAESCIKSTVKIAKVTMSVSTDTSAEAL

T2 sequence (P21554 whole entry): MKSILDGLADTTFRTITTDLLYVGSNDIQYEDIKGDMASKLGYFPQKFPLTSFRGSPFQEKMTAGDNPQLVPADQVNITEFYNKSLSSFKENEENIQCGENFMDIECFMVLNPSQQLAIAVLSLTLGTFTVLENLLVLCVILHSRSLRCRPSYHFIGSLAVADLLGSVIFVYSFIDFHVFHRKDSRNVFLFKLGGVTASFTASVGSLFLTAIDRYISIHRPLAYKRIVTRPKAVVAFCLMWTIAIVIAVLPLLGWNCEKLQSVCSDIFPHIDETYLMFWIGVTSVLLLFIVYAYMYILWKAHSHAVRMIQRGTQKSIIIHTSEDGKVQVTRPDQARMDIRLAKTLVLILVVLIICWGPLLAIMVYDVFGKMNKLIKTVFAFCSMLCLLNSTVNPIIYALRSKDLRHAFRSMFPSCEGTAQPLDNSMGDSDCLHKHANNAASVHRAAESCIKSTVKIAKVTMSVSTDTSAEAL
T1 sequence (P21554 whole entry): as above
Sequence of human CB2 (P34972 whole entry): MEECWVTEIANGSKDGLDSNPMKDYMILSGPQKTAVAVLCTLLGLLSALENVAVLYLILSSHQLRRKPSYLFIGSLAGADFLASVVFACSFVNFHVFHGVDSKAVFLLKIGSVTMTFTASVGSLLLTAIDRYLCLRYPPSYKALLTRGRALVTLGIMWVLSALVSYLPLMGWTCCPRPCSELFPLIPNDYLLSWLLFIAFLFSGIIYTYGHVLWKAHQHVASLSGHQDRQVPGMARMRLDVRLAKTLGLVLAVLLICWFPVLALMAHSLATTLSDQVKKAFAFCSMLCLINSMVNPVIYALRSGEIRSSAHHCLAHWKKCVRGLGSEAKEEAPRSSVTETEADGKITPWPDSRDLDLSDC

Row | Molecule | induction of CB1 receptor internalization by the substance alone (CB1 TRex-CHO cells) | further results
1 | Cc1c(C(=O)NN2CCS(=O)(=O)CC2)nn(-c2ccc(Cl)cc2Cl)c1-c1ccc(C#CCCC#N)cc1 [AM6545, reference compound] | – | effect on cAMP levels ([1]; 1.5 μM or 5 μM forskolin stimulated TRex-CHO CB1 cells, no exogenous agonist): did not affect cAMP levels
2 | B1 | do not induce | –
3 | B2 | do not induce | –
4 | B3 | do not induce | –
5 | B4 | do not induce | –
6 | B5 | do not induce | –
7 | B6 | – | mechanism (inverse agonist or neutral antagonist) ([1]; 5 μM forskolin, no agonist (Example 11)): inverse agonists; blocking of WIN55,212 induced ERK phosphorylation [2]: blocked; binding to parental TRex CHO (TRex CHO parental cells): not parental TRex CHO; cross-activity / selectivity human CB2 (human CB2): do not have cross-activity; cross-activity / cross-reactivity Mouse CB1 (Mouse CB1): do not have cross-activity
8 | B7 | do not induce | –
9 | B8 | do not induce | –
10 | B9 | do not induce | –
11 | B10 | do not induce | –
